In patent US11938198B2, “Treatment of heart disease by disruption of the anchoring of PP2A” (University of Miami, priority 2019, dated 2024):

B1: mAKAP 1286-2312: myc-tagged mAKAP construct containing binding sites for PDE4D3, PKA and PP2A (protein)
chain: VYSLHNVELHEDSHTPFLKSSPKFTGTTQPTVLTKSLSKDSSFSSTKSLPDLLGGSGLVRPYSCHSGDLSQNSGSESGIVSEGDNEMPTNSDMSLFSMVDGSPSNPETEHPDPQMGDAANVLEQKFKDNGESIKLSSVSRASVSPVGCVNGKAGDLNSVTKHTADCLGEELQGKHDVFTFYDYSYLQGSKLKLPMIMKQPQSEKAHVEDPLLGGFYFDKKSCKAKHQASESQPDAPPHERILASAPHEMGRSAYKSSDIEKTFTGIQSARQLSLLSRSSSVESLSPGGDLFGLGIFKNGSDSLQRSTSLESWLTSYKSNEDLFSCHSSGDISVSSGSVGELSKRTLDLLNRLENIQSPSEQKIKRSVSDMTLQSSSQKMPFAGQMSLDVASSINEDSPASLTELSSSDELSLCSEDIVLHKNKIPESNASFRKRLNRSVADESDVNVSMIVNVSCTSACTDDEDDSDLLSSSTLTLTEEELCLKDEDDDSSIATDDEIYEESNLMSGLDYIKNELQTWIRPKLSLTREKKRSGVTDEIKVNKDGGGNEKANPSDTLDIEALLNGSIRCLSENNGNGKTPPRTHGSGTKGENKKSTYDVSKDPHVADMENGNIESTPEREREKPQGLPEVSENLASNVKTISESELSEYEAVMDGSEDSSVARKEFCPPNDRHPPQMGPKLQHPENQSGDCKPVQNPCPGLLSEAGVGSRQDSNGLKSLPNDAPSGARKPAGCCLLEQNETEESASISSNASCCNCKPDVFHQKDDEDCSVHDFVKEIIDMASTALKSKSQPESEVAAPTSLTQIKEKVLEHSHRPIHLRKGDFYSYLSLSSHDSDCGEVTNYIDEKSSTPLPPDAVDSGLDDKEDMDCFFEACVEDEPVNEEAGLPGALPNESAIEDGAEQKSEQKTASSPVLSDKTDLVPLSGLSPQKGADDAKEGDDVSHTSQGCAESTEPTTPSGKANAEGRSRMQGVSATPEENAASAKPKIQAFSLNAKQPKGKVAMRYPSPQTLTCKEKLVNFHEDRHSNM
modifications: left off: small tags and cut ends
B2: human 2085-2319: GFP-fusion fragment of human mAKAP residues 2085-2319 (protein)
chain: TSLTQIKEKVLEHSHRPIQLRKGDFYSYLSLSSHDSDCGEVTNYIEEKSSTPLPLDTTDSGLDDKEDIECFFEACVEGDSDGEEPCFSSAPPNESAVPSEAAMPLQATACSSEFSDSSLSADDADTVALSSPSSQERAEVGKEVNGLPQTSSGCAENLEFTPSKLDSEKESSGKPGESGMPEEHNAASAKSKVQDLSLKANQPTDKAALHPSPKTLTCEENLLNLHEKRHRNMHR
modifications: left off: large carriers
B3: mAKAP 1286-2083: myc-tagged rat mAKAP 1286-2083 construct deficient in PP2A binding (protein)
chain: VYSLHNVELHEDSHTPFLKSSPKFTGTTQPTVLTKSLSKDSSFSSTKSLPDLLGGSGLVRPYSCHSGDLSQNSGSESGIVSEGDNEMPTNSDMSLFSMVDGSPSNPETEHPDPQMGDAANVLEQKFKDNGESIKLSSVSRASVSPVGCVNGKAGDLNSVTKHTADCLGEELQGKHDVFTFYDYSYLQGSKLKLPMIMKQPQSEKAHVEDPLLGGFYFDKKSCKAKHQASESQPDAPPHERILASAPHEMGRSAYKSSDIEKTFTGIQSARQLSLLSRSSSVESLSPGGDLFGLGIFKNGSDSLQRSTSLESWLTSYKSNEDLFSCHSSGDISVSSGSVGELSKRTLDLLNRLENIQSPSEQKIKRSVSDMTLQSSSQKMPFAGQMSLDVASSINEDSPASLTELSSSDELSLCSEDIVLHKNKIPESNASFRKRLNRSVADESDVNVSMIVNVSCTSACTDDEDDSDLLSSSTLTLTEEELCLKDEDDDSSIATDDEIYEESNLMSGLDYIKNELQTWIRPKLSLTREKKRSGVTDEIKVNKDGGGNEKANPSDTLDIEALLNGSIRCLSENNGNGKTPPRTHGSGTKGENKKSTYDVSKDPHVADMENGNIESTPEREREKPQGLPEVSENLASNVKTISESELSEYEAVMDGSEDSSVARKEFCPPNDRHPPQMGPKLQHPENQSGDCKPVQNPCPGLLSEAGVGSRQDSNGLKSLPNDAPSGARKPAGCCLLEQNETEESASISSNASCCNCKPDVFHQKDDEDCSVHDFVKEIIDMASTALKSKSQPESEVAAP
modifications: left off: small tags and cut ends
B4: rat mAKAP 1835-2312: GFP-fusion fragment of rat mAKAP (protein)
chain: ANPSDTLDIEALLNGSIRCLSENNGNGKTPPRTHGSGTKGENKKSTYDVSKDPHVADMENGNIESTPEREREKPQGLPEVSENLASNVKTISESELSEYEAVMDGSEDSSVARKEFCPPNDRHPPQMGPKLQHPENQSGDCKPVQNPCPGLLSEAGVGSRQDSNGLKSLPNDAPSGARKPAGCCLLEQNETEESASISSNASCCNCKPDVFHQKDDEDCSVHDFVKEIIDMASTALKSKSQPESEVAAPTSLTQIKEKVLEHSHRPIHLRKGDFYSYLSLSSHDSDCGEVTNYIDEKSSTPLPPDAVDSGLDDKEDMDCFFEACVEDEPVNEEAGLPGALPNESAIEDGAEQKSEQKTASSPVLSDKTDLVPLSGLSPQKGADDAKEGDDVSHTSQGCAESTEPTTPSGKANAEGRSRMQGVSATPEENAASAKPKIQAFSLNAKQPKGKVAMRYPSPQTLTCKEKLVNFHEDRHSNM
modifications: left off: large carriers

Tests used:
PP2A = molecular target: T1, PP2A (Homo sapiens, UniProt P30153+P67775); assay: myc-tag immunoprecipitation of mAKAP fragments from HEK293 cells with phosphatase assay; type: binding; conditions: myc-tagged fragments expressed in HEK293 cells
T1 construct: endogenous in cells; host or cells: HEK293
Description: (§1) Immunoprecipitation—HEK293 cells were used in this project as a heterologous system lacking mAKAP in which the various wildtype and mutant proteins could be easily expressed. Cells cultured on 60 mm plates were transfected at 50%-70% confluency by the calcium phosphate method, using 6 μg of each DNA construct per plate. Cells were harvested 24 hours after transfection in 0.5 ml HSE buffer (HEPES, pH 7.4, 150 mM NaCl, 5 mM EDTA, 1% Triton X-100 and protease inhibitors). Supernatants were incubated with 3 μg antibody and 15 μl prewashed protein A- or G-agarose beads. Following overnight incubation at 4° C., the immunoprecipitates were washed three times with the same buffer. Bound proteins were analyzed by immunoblotting.
To measure phosphatase activity, immunoprecipitated protein complexes were washed twice in HSE buffer and once in PP2A reaction buffer. The immunoprecipitates were incubated for 30 minutes at 30° C. in 20 μl PP2A assay buffer containing 100,000 cpm [^32P]histone in the presence and absence of inhibitors. The PP2A inhibitor (Calbiochem) was used at a concentration of 30 nM. Purified I-1 was phosphorylated by PKA before using as a specific PP1 inhibitor. Reactions were terminated by the addition of 100 μl 20% TCA followed by 10 min centrifugation. TCA supernatants containing released ^32PO4 were measured by scintillation counting. […]

PP2A-A subunit = molecular target: T2, PP2A-A subunit (Homo sapiens, UniProt P30153); assay: GST-PP2A-A pull-down of GFP-tagged mAKAP fragments expressed in HEK293 cells; type: binding; conditions: GFP-tagged fragments in HEK293 cell extracts
T2 construct: made in house; host or cells: bacteria
Description: GST-pulldowns—Glutathione resin adsorbed with PP2A-A subunit GST fusion protein or GST control protein were incubated with HEK293 cell extracts. After an overnight incubation, the beads were washed three times. Bound proteins were analyzed by immunoblotting.
mAKAP residues 2083-2319 contain the PP2A binding domain. In order to map the PP2A binding site on mAKAP, a bacterially-expressed PP2A-A subunit GST-fusion protein was used to pull down GFP-tagged fragments of mAKAP expressed in HEK293 cells (FIGS. 10A & B). GST-PP2A-A consistently pulled down only fragments of mAKAP containing a domain C-terminal to residue 2085.

PDE4D3 Ser-54 = PDE4D3 Ser-54 phosphorylation in mAKAP immunoprecipitates from transfected HEK293 cells (phospho-specific immunoblot); type: cell-based; conditions: HEK293 cells expressing PDE4D3 and mAKAP construct lacking the PP2A binding site
mAKAP-bound PDE4D3 = assay: PDE activity associated with mAKAP immunoprecipitates from transfected HEK293 cells ([3H]cAMP); type: cell-based; conditions: unstimulated (bar 1 and 4)
Description: as §1, with “immunoblotting. […]” for “immunoblotting.”
As phosphorylation of PDE4D3 Ser-54 increases phosphodiesterase activity 2 fold (Sette and Conti 1996), whether OA treatment would also increase the activity of mAKAP-bound PDE4D3 was tested. mAKAP complexes were immunoprecipitated from transfected HEK293 cells and assayed for associated phosphodiesterase activity (FIG. 8B). mAKAP-associated phosphodiesterase activity in untreated cells was detected only when mAKAP was co-expressed with PDE4D3 (FIG. 8B, bar 1, and data not shown), consistent with a previous observation that PDE4D3 accounts for all of the phosphodiesterase activity associated with mAKAP in cardiac myocytes (Dodge et al. 2001).

T2 sequence (P30153 whole entry, the tested form may be a part): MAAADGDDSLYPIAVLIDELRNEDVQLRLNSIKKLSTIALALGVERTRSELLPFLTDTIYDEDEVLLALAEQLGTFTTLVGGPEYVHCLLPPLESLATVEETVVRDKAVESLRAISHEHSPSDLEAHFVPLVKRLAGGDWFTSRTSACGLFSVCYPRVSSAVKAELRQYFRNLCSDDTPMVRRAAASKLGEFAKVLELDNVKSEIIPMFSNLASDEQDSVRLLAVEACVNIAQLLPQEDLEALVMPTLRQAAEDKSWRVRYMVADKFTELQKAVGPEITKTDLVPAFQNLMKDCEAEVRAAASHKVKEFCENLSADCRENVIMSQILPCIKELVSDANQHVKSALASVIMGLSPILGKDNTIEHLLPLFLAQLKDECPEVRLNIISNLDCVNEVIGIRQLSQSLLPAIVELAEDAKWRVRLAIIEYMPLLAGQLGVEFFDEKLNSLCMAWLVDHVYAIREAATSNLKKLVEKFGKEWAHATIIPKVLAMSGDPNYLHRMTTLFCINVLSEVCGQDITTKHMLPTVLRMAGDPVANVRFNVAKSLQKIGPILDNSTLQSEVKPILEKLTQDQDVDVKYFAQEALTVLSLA
T1 sequence (P67775 whole entry, the tested form may be a part): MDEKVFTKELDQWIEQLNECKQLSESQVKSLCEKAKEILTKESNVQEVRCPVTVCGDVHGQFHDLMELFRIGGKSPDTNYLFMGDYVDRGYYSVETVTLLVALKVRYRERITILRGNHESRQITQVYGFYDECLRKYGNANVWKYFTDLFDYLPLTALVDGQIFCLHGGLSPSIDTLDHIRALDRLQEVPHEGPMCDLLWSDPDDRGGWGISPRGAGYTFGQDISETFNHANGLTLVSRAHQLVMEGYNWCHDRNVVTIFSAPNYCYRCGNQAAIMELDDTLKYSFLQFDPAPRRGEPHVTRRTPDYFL
T1 sequence (P30153 whole entry, the tested form may be a part): as the sequence (P30153 whole entry, the tested form may be a part) above

| Molecule | co-immunoprecipitation with OA-sensitive phosphatase activity (PP2A) | binding to GST-PP2A-A (pull-down) (PP2A-A subunit) | baseline phosphorylation of mAKAP-bound PDE4D3, fold of the level obtained with OA (PDE4D3 Ser-54) [fold] | PDE4D3 activity higher in immunoprecipitates lacking PP2A than in complexes containing the phosphatase (mAKAP-bound PDE4D3) [%] |
| --- | --- | --- | --- | --- |
| B1 | co-immunoprecipitated with OA-sensitive phosphatase activity |  |  |  |
| B2 |  | bound GST-PP2A-A |  |  |
| B3 | not |  | 0.49±0.19 | 30 |
| B4 |  | bound GST-PP2A-A |  |  |
